Assay results reported in the supplement of paper PMC7125110.
± gives the standard error. This sample holds only a part of the variants without activity.

B1: glmS ribozyme (parent)
chain: AUAAAAGCGCCAGAACUACAGAAAUGUAGUUGACGAGGAGGAGGUUUAUCGAAUUUUCGGCGGAUGCCUCCAAA

Variants of: B1
Assay: self-cleavage kobs at 10000 uM GlcN6P; higher = faster cleavage; RNA array
Conditions: with glucosamine-6-phosphate
In short: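 Barcoded ribozyme variants on sequenced MiSeq chips were transcribed in situ by E. coli RNA polymerase and followed at 37 °C through a hybridised Cy3 probe. Glucosamine-6-phosphate at 40 μM to 10 mM in HEPES/KCl/Mg(OAc)2 buffer was flowed in, and tiles were imaged over ~14 h. Signals were normalised to baseline and to non-cleaving reference variants, and per-tile medians were fit to one- or two-exponential decays to give kobs. Weighted Michaelis–Menten fits across concentrations gave kcat and KM.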

Row | Variant | self-cleavage kobs at 10000 uM GlcN6P
1 | U31C G40U G66A | 0.00025 ± 7.4e-05 s⁻¹
2 | G35A U49G C61U | < 1e-05 s⁻¹
3 | U30C G44U C58G | < 1e-05 s⁻¹
4 | A33G G37C C50G C68A | 0.00162 ± 0.00046 s⁻¹
5 | A33C A36G U47G G51A | < 1e-05 s⁻¹
6 | G43C G62C A64G C68G | < 1e-05 s⁻¹
7 | C8A A14U A39C | < 1e-05 s⁻¹
8 | U30G U47C U54C C67U | 5.7e-05 ± 2.2e-05 s⁻¹
9 | C8U A15C G32U A36U A39C A48U | < 1e-05 s⁻¹
10 | A39U U55C A64G | 0.0229 ± 0.0073 s⁻¹
11 | A39U A52G C67G | 0.00016 ± 3.6e-05 s⁻¹
12 | U31A G32A A42G | 0.000766 ± 0.00025 s⁻¹
13 | C16A G29U C58A | 0.000415 ± 0.00011 s⁻¹
14 | C11A U55A U56C | 2.5e-05 ± 1.1e-05 s⁻¹
15 | A52C C68U C70U | 3.87e-05 ± 1.7e-05 s⁻¹
16 | G9C U54G | < 1e-05 s⁻¹
17 | A52U A53C G62C | < 1e-05 s⁻¹
18 | A14C G35C G38U C61U G63U U65A C71G | < 1e-05 s⁻¹
19 | C50G G63U U65A U69G | 0.000121 ± 2.7e-05 s⁻¹
20 | C8A G35C A53U | < 1e-05 s⁻¹
21 | C50U C61U C67U | < 1e-05 s⁻¹

Row | Variant | self-cleavage kobs at 10000 uM GlcN6P
22 | C11A U69G C71G | 4.63e-05 ± 1.5e-05 s⁻¹
23 | C10A A36U G59A G60A | < 1e-05 s⁻¹
24 | G37U C58G | < 1e-05 s⁻¹
25 | C11U A15G U31C C67G | 6.25e-05 ± 1.8e-05 s⁻¹
26 | A39G A53C C71A | 0.00202 ± 0.00063 s⁻¹
27 | C11G G13U G37C | < 1e-05 s⁻¹
28 | A33C G44C G60A | < 1e-05 s⁻¹
29 | C16A U30G C34U | < 1e-05 s⁻¹
30 | U45G U57G | 3.68e-05 ± 9e-06 s⁻¹
31 | C10U C11U G66C | < 1e-05 s⁻¹
32 | G13U G38C G62A | < 1e-05 s⁻¹
33 | G7A U30G G41A C70A | < 1e-05 s⁻¹
34 | G13C A42G U65C | < 1e-05 s⁻¹
35 | G29C G44A C58G | < 1e-05 s⁻¹
36 | C10A A15C A42C U55G C68U | < 1e-05 s⁻¹
37 | G44C C70U C71A | < 1e-05 s⁻¹
38 | G38A A52U U56G | < 1e-05 s⁻¹
39 | U54G G59U C71U | 4.41e-05 ± 1.6e-05 s⁻¹
40 | U45A U56A | 0.0179 ± 0.0079 s⁻¹
41 | A14G A15G U47C U55A C70G | 0.000483 ± 0.00014 s⁻¹
42 | G13U C16U A53U G62U | < 1e-05 s⁻¹

Row | Variant | self-cleavage kobs at 10000 uM GlcN6P
43 | C11U G60A C68G | 5.38e-05 ± 1.9e-05 s⁻¹
44 | G32A A52G C70U | 0.000145 ± 1.9e-05 s⁻¹
45 | G9A G29A G40U G51A | < 1e-05 s⁻¹
46 | A14G U47C U56G | 0.0112 ± 0.0019 s⁻¹
47 | A6C U31G G40C | < 1e-05 s⁻¹
48 | C11G G29A G41U C50G U56G C67U | < 1e-05 s⁻¹
49 | G38U C50G C67A C71G | 0.000322 ± 6.1e-05 s⁻¹
50 | A15C G44A A53G | 5.76e-05 ± 1.5e-05 s⁻¹
51 | A14C G40U U56G | 0.00853 ± 0.0032 s⁻¹
52 | G13U G44U U45G C58A C71G | < 1e-05 s⁻¹
53 | A15G G44U C58U C67A | 2.9e-05 ± 1.2e-05 s⁻¹
54 | A14G U49G U55C | 0.00199 ± 0.00057 s⁻¹
55 | U45G G59U | 4.05e-05 ± 1.2e-05 s⁻¹
56 | G7C U49A C50U A53U U54C C68U | < 1e-05 s⁻¹
57 | G32U A53G U65A | 5.88e-05 ± 1.9e-05 s⁻¹
58 | G32U A52G C70A | 8.27e-05 ± 2.1e-05 s⁻¹
59 | U57A A64G | 0.000214 ± 4.6e-05 s⁻¹
60 | G51C U54G C70A | < 1e-05 s⁻¹
61 | C11G G38A A48C G60C G62C C68U | < 1e-05 s⁻¹
62 | G35C A48U C70G | < 1e-05 s⁻¹
63 | A36C G38U A39C G62U | < 1e-05 s⁻¹

Row | Variant | self-cleavage kobs at 10000 uM GlcN6P
64 | A36G G37C A42C A48C U65G | < 1e-05 s⁻¹
65 | A12G U46A C71G | 3.42e-05 ± 1.3e-05 s⁻¹
66 | G7C G32C G41C | < 1e-05 s⁻¹
67 | A12U U31G U55C U65A | 0.0008 ± 0.00013 s⁻¹
68 | U30G A39C U56A C70G | < 1e-05 s⁻¹
69 | G7U A12U G35U G51U G66A | < 1e-05 s⁻¹
70 | C8G G51U U69G | 0.00122 ± 0.00049 s⁻¹
71 | G9A A36U U45A A64C | < 1e-05 s⁻¹
72 | U45A U54A C70A | 8.25e-05 ± 1.9e-05 s⁻¹
73 | U30G G35U G43C | < 1e-05 s⁻¹
74 | A33G A42C U47C G60A | < 1e-05 s⁻¹
75 | U46A A48G | 3.66e-05 ± 1.3e-05 s⁻¹
76 | A28C C68U | 0.00228 ± 0.00063 s⁻¹
77 | U49A U65G C67G U69A | < 1e-05 s⁻¹
78 | A12G A42G A52G | 2.4e-05 ± 1.2e-05 s⁻¹
79 | G9U A36G G43U U55G C68U | < 1e-05 s⁻¹
80 | U31C G41A G66A | 0.00018 ± 2.8e-05 s⁻¹
81 | G38U C50G C71A | 9.8e-05 ± 1.9e-05 s⁻¹
82 | A12G G40A U55C | 9.22e-05 ± 2e-05 s⁻¹
83 | C10U A42G | 3.17e-05 ± 7.6e-06 s⁻¹
